Assay [1] has as its target T1, human PD-L1 on HEK293A/human PD-L1 cells (human, UniProt Q9NZQ7 19-290). Briefly: FACS on HEK293A/human PD-L1 cells. On the procedure:
(§1) The bispecific antibodies as prepared above were tested for their binding capability to cell surface human, monkey and mouse CD40 proteins by FACS, using the HEK293A cells prepared in Example 1 that stably expressed human, monkey or mouse CD40. Briefly, a 96-well plate was seeded with 10⁵ HEK293A cells in 50 μl PBS, and then added with 100 μl serially diluted anti-CD40 antibody 714VH2VL2 and the bispecific antibodies of the disclosure (starting concentration at 40 μg/ml). After incubation at 4° C. for 1 h, the plate was washed by PBST for 3 times. The plate was added with 1:500 diluted APC-goat anti-mouse IgG (Cat #:405308, BioLegen, USA), incubated at 4° for 1 h, washed with PBS for 3 times, and subjected to fluorescence measurement in a FACS machine (BD).
(§2) Following the protocols in Example 4 and Example 5, the bi- or multi-specific antibodies of the disclosure were tested for their binding capability to human PD-L1 and human CD40 proteins by FACS using the HEK293A cells prepared in Example 1 that stably expressed human PD-L1 or human CD40.

Assay [2] deals with T1, human PD-L1 on HEK293A/human PD-L1 cells. Briefly: FACS on HEK293A/human PD-L1 cells. On the procedure: as §1, §2
This is another data set of the same source.

Assay [3] has the same target. Briefly: FACS blocking assay on HEK293A/human PD-L1 cells; blocked ligand PD-1-Fc. The procedure:
The bispecific antibodies were tested for their blocking activity on PD-1-PD-L1 binding by FACS using the HEK293A cells stably expressing human PD-L1 molecules as prepared in Example 1. Briefly, a 96-well plate was seeded with 10⁵ HEK293A/human PD-L1 cells in 100 μl cell culture medium, and then added with 50 μl serially diluted anti-PD-L1 antibody 56E5VH5VL4 or MBS307-3 molecules. After incubation at 4° C. for 1 h. the plate was washed with PBST for 3 times, added with 100 μl 200 μg/ml PD-1-Fc fusion proteins (Cat #:10377-10211, Sino Biological, CN), incubated at 4° C. for 1 h, washed with PBST for 3 times, and added with 1:500 diluted PE-goat anti-human IgG (Cat #:PAI-86078, Thermofisher, USA). After incubation at 4° C. for 1 h, the plate was washed with PBST for 3 times and measured for fluorescence using a FACS machine (BD).
Following the protocol of Example 7, the bi- or multi-specific antibodies were tested for their capability to block PD-1-PD-L1 binding by FACS, using the HEK293A cells prepared in Example 1 that stably expressed human PD-L1 molecules.

Assay [4] concerns the target T2, human CD40 on HEK293A/human CD40 cells (human, UniProt P25942 21-277). Briefly: cell-based or functional assay.
The target of assay [5] is T2, human CD40 on HEK293A/human CD40 cells. The experiment in a line: cell-based or functional assay. The source holds these as a separate data set.
For assay [6] the target is unchanged. Briefly: FACS on HEK293A/human CD40 cells. On the procedure: as §1, §2
For assay [7] the target is unchanged. The experiment in a line: FACS on HEK293A/human CD40 cells. The procedure:
as §1, §2
The source holds these as a separate data set.

For assay [8] the target is unchanged. Briefly: FACS on HEK293A/human CD40 cells. On the procedure:
as §1, §2
The source holds these as a separate data set.

The target in a further assay is T3, human CD40-his protein (human, UniProt P25942 21-193).
T3 construct: Bought protein; also called human CD40 protein; CD40 molecules; not shown: his tag
The experiment in a line: SPR (BIAcore 8K), human CD40-his coupled to CM5 chip, antibody injected. From the text: (§3) Using BIAcore™ 8K instrument (GE Life Sciences, US), the binding affinity of the bi- or multi-specific antibodies to human CD40 and PD-L1 was quantitatively measured. Briefly, 100-200 response units (RU) of human CD40-his protein (Cat #:10774-1108H, Sino Biological, CN) or human PD-L1-his protein (Cat #:10084-H08H, Sino Biological, CN) were coupled to CM5 biosensor chips (Cat #:BR-1005-30, GE Life Sciences. USA). The un-reacted groups were then blocked with 1 M ethanolamine. Serially diluted antibodies at concentrations ranging from 0.3 μM to 10 μM were injected into the SPR running buffer (HBS-EP buffer, pH7.4, Cat #:BR-1006-69, GE Life Sciences, USA) at 30 μL/min. The binding affinity was calculated with the RUs of blank controls subtracted, and the association rate (kₐ) and dissociation rate (kd) were determined using the one-to-one Langmuir binding model (BIA Evaluation Software, GE Life Sciences, USA). The equilibrium dissociation constant KD was calculated as the kd/kₐ ratio.
A general note: Surface plasmon resonance follows binding to a sensor surface in real time, without labels.

Another assay concerns the target T4, human PD-L1-his protein (human, UniProt Q9NZQ7 19-238).
T4 construct: extracellular domain; also called human PD-L1 (ECD)-his; human PD-L1 protein; not shown: his tag
The experiment in a line: SPR (BIAcore 8K), human PD-L1-his coupled to CM5 chip, antibody injected.
Excerpt: as §3

Assay [9] deals with T1, human PD-L1 on HEK293A/human PD-L1 cells. The experiment in a line: FACS on HEK293A/human PD-L1 cells. On the procedure: as §1, §2
This is another data set of the same source.

Like-named read-outs stand apart in the source and are kept apart here.

A word on the EC50 (read off the curve): it is the concentration that produces a half-maximal response. As a reminder, the Kd is the free concentration of one partner at which half of the binding sites on the other are occupied at equilibrium, for simple one-to-one binding. Lower therefore signals tighter binding.

T1 sequence (Q9NZQ7 19-290 limits assumed): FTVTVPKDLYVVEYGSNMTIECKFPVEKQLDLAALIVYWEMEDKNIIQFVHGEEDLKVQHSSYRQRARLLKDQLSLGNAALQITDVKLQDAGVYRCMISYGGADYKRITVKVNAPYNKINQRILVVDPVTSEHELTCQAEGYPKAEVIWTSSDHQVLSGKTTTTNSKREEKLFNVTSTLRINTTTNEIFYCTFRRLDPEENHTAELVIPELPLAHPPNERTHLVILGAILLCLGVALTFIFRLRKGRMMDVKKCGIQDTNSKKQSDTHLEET
T4 sequence (Q9NZQ7 19-238): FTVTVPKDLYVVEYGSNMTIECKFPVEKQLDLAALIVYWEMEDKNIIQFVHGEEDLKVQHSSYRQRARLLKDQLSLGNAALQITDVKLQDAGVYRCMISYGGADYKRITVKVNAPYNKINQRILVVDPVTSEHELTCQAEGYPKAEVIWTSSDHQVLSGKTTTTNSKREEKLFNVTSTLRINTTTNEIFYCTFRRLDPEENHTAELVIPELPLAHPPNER

B1: anti-PD-L1 antibody 3C2VH6VL5 (antibody, V domains shown)
VH: QVQLVQSGAEVKKPGASVKVSCKASGYTFTDYHVNWVRQAPGQGLEWIGWIFPGSGRTFYTDKFKGRVTMTVDTSTSTVYMELSSLRSEDTAVYYCATDYGTSGYGLVYWGQGTTVTVSS
VL: DIQMTQSPSSLSASVGDRVTITCKASDRINNWLAWYQQKPGKAPKLLISGATSLETGVPSRFSGSGSGTDFTLTISSLQPEDIATYYCQQYWNIPFTFGQGTKVEIK
notes: also called 3C2VH46VL5 [sic]
Consider B1, for which the “EC50 (read off the curve)” value in assay [1] is ~0.2 µg/mL; in assay [2], ~0.1 µg/mL. The “IC50 (read off the curve)” value in assay [3] was ~0.5 µg/mL.

B2: MBS307-10 (bispecific antibody, human IgG1, kappa, L234A L235A)
heavy 1: QVQLQESGPGLVKPSDTLSLTCAVSGYSITTNYYWNWIRQPPGKGLEWMGYIKYDGSNNYNPSLKNRITISVDTSKNQFSLKLSSVTAVDTAVYYCARLDYWGQGTLVTVSSASTKGPSVFPLAPSSKSTSGGTAALGCLVKDYFPEPVTVSWNSGALTSGVHTFPAVLQSSGLYSLSSVVTVPSSSLGTQTYICNVNHKPSNTKVDKKVEPKSCDKTHTCPPCPAPEAAGGPSVFLFPPKPKDTLMISRTPEVTCVVVDVSHEDPEVKFNWYVDGVEVHNAKTKPREEQYNSTYRVVSVLTVLHQDWLNGKEYKCKVSNKALPAPIEKTISKAKGQPREPQVYTLPPSREEMTKNQVSLWCLVKGFYPSDIAVEWESNGQPENNYKTTPPVLDSDGSFFLYSKLTVDKSRWQQGNVFSCSVMHEALHNHYTQKSLSLSPGK
heavy 2: QVQLQESGPGLVKPSDTLSLTCAVSGYSITTNYYWNWIRQPPGKGLEWMGYIKYDGSNNYNPSLKNRITISVDTSKNQFSLKLSSVTAVDTAVYYCARLDYWGQGTLVTVSSASTKGPSVFPLAPSSKSTSGGTAALGCLVKDYFPEPVTVSWNSGALTSGVHTFPAVLQSSGLYSLSSVVTVPSSSLGTQTYICNVNHKPSNTKVDKKVEPKSCDKTHTCPPCPAPEAAGGPSVFLFPPKPKDTLMISRTPEVTCVVVDVSHEDPEVKFNWYVDGVEVHNAKTKPREEQYNSTYRVVSVLTVLHQDWLNGKEYKCKVSNKALPAPIEKTISKAKGQPREPQVYTLPPSREEMTKNQVSLSCAVKGFYPSDIAVEWESNGQPENNYKTTPPVLDSDGSFFLVSKLTVDKSRWQQGNVFSCSVMHEALHNHYTQKSLSLSPGGGGGQVQLVQSGAEVKKPGASVKVSCKASGYTFTDYHVNWVRQAPGQGLEWIGWIFPGSGRTFYTDKFKGRVTMTVDTSTSTVYMELSSLRSEDTAVYYCATDYGTSGYGLVYWGQGTTVTVSSGGGGSGGGGSGGGGSGGGGSDIQMTQSPSSLSASVGDRVTITCKASDRINNWLAWYQQKPGKAPKLLISGATSLETGVPSRFSGSGSGTDFTLTISSLQPEDEATYYCQQYWNIPFTFGQGTKLTAK
light: DVVLTQSPLSLPVTLGQPASISCRSSQSLENSNGNTFLNWFQQRPGQSPRLLIYKVSNRFSGVPDRFSGSGSGTDFTLKISRVEAEDVGVYYCLQVTHVPFTFGQGTKLEIKRTVAAPSVFIFPPSDEQLKSGTASVVCLLNNFYPREAKVQWKVDNALQSGNSQESVTEQDSKDSTYSLSSTLTLSKADYEKHKVYACEVTHQGLSSPVTKSFNRGEC
notes: Asymmetric: knob chain without scFv, hole chain with the 3C2VH6VL5 scFv; also called MBS307-10-1 + MBS307-10-2
As for B2, the “EC50 (read off the curve); HEK-Blue/CD40 reporter, OD630, plate coated with human PD-L1-his” value in [4] was ~0.05 µg/mL; in assay [5], ~0.03 µg/mL. Further, the “EC50 (read off the curve)” value in [6] is ~0.04 µg/mL; in assay [7], ~0.07 µg/mL; in assay [8] it was ~0.02 µg/mL. Moreover, the dissociation constant Kd with human CD40-his protein worked out at 2.72 nM; in the assay with human PD-L1-his protein, 17.7 nM.

B3: MBS307-8 (bispecific antibody, human IgG1, kappa, L234A L235A)
heavy 1: QVQLQESGPGLVKPSDTLSLTCAVSGYSITTNYYWNWIRQPPGKGLEWMGYIKYDGSNNYNPSLKNRITISVDTSKNQFSLKLSSVTAVDTAVYYCARLDYWGQGTLVTVSSASTKGPSVFPLAPSSKSTSGGTAALGCLVKDYFPEPVTVSWNSGALTSGVHTFPAVLQSSGLYSLSSVVTVPSSSLGTQTYICNVNHKPSNTKVDKKVEPKSCDKTHTCPPCPAPEAAGGPSVFLFPPKPKDTLMISRTPEVTCVVVDVSHEDPEVKFNWYVDGVEVHNAKTKPREEQYNSTYRVVSVLTVLHQDWLNGKEYKCKVSNKALPAPIEKTISKAKGQPREPQVYTLPPSREEMTKNQVSLWCLVKGFYPSDIAVEWESNGQPENNYKTTPPVLDSDGSFFLYSKLTVDKSRWQQGNVFSCSVMHEALHNHYTQKSLSLSPGSGGGGSGGGGSQVQLVQSGAEVKKPGASVKVSCKASGYTFTDYHVNWVRQAPGQGLEWIGWIFPGSGRTFYTDKFKGRVTMTVDTSTSTVYMELSSLRSEDTAVYYCATDYGTSGYGLVYWGQGTTVTVSSGGGGSGGGGSGGGGSGGGGSDIQMTQSPSSLSASVGDRVTITCKASDRINNWLAWYQQKPGKAPKLLISGATSLETGVPSRFSGSGSGTDFTLTISSLQPEDEATYYCQQYWNIPFTFGQGTKLTAK
heavy 2: QVQLQESGPGLVKPSDTLSLTCAVSGYSITTNYYWNWIRQPPGKGLEWMGYIKYDGSNNYNPSLKNRITISVDTSKNQFSLKLSSVTAVDTAVYYCARLDYWGQGTLVTVSSASTKGPSVFPLAPSSKSTSGGTAALGCLVKDYFPEPVTVSWNSGALTSGVHTFPAVLQSSGLYSLSSVVTVPSSSLGTQTYICNVNHKPSNTKVDKKVEPKSCDKTHTCPPCPAPEAAGGPSVFLFPPKPKDTLMISRTPEVTCVVVDVSHEDPEVKFNWYVDGVEVHNAKTKPREEQYNSTYRVVSVLTVLHQDWLNGKEYKCKVSNKALPAPIEKTISKAKGQPREPQVYTLPPSREEMTKNQVSLSCAVKGFYPSDIAVEWESNGQPENNYKTTPPVLDSDGSFFLVSKLTVDKSRWQQGNVFSCSVMHEALHNHYTQKSLSLSPGSGGGGSGGGGSQVQLQESGPGLVKPSQTLSLTCTVSGGSITSDYWNWIRQHPGNKLEYMGYISYTGSTYYNPSLKSRISITRDTSKNQFSLKLSSVTTADTAVYYCARYRDWDVRAMDYWGQGTTVTVSSGGGGSGGGGSGGGGSGGGGSDIVMTQSPDSLAVSLGEKVTMNCKSSQSLLISGNQKNFLTWYQQKPGQPPKLLIYWASTRESGVPDRFSGSGSGTDFTLTISSLQAEDEAVYYCQNDFGFPFTFGQGTKLTAK
light: DVVLTQSPLSLPVTLGQPASISCRSSQSLENSNGNTFLNWFQQRPGQSPRLLIYKVSNRFSGVPDRFSGSGSGTDFTLKISRVEAEDVGVYYCLQVTHVPFTFGQGTKLEIKRTVAAPSVFIFPPSDEQLKSGTASVVCLLNNFYPREAKVQWKVDNALQSGNSQESVTEQDSKDSTYSLSSTLTLSKADYEKHKVYACEVTHQGLSSPVTKSFNRGEC
notes: Asymmetric: knob chain with the 3C2VH6VL5 scFv, hole chain with the 56E5VH5VL4 scFv, linker 3 (long linker); also called MBS307-8-1 + MBS307-8-2
For B3, the results for the “EC50 (read off the curve)” value in assay [8] and in [9] were ~0.04 µg/mL and ~0.5 µg/mL, respectively.

Source of the values: patent US20240084027A1 (BEIJING MABWORKS, published 2024).
